Patent US20230365670A1 (SCOUT BIO, published 2023)

B1: fe_αD11_HCCDR1(F/L) (felinized anti-NGF monoclonal antibody, F to L at position 2 of heavy chain CDR1) (antibody, V domains shown)
VH: QVQLMESGADLVQPSESLRLTCVASGLSLTNNNVNWVRQAPGKGLEWMGGVWAGGATDYNSALKSRLTITRDTSKNTVFLQMHSLQSEDTATYYCARDGGYSSSTLYAMDAWGQGTTVTVSA
VL: DIEMTQSPLSLSATPGETVSISCRASEDIYNALAWYLQKPGRSPRLLIYNTDTLHTGVPDRFSGSGSGTDFTLKISRVQTEDVGVYFCQHYFHYPRTFGQGTKLELKR
notes: also called fe1_αD11_HCCDR1(F/L)
B2: fe_αD11 (felinized anti-NGF monoclonal antibody with the CDR sequences of rat αD11) (antibody, V domains shown)
VH: QVQLVESGAELVQPGESLRLTCAASGFSLTNNNVNWVRQAPGKGLEWMGGVWAGGATDYNSALKSRLTITRDTSKNTVFLQMHSLQSEDTATYYCARDGGYSSSTLYAMDAWGQGTTVTVSA
VL: DIEMTQSPLSLSVTPGESVSISCRASEDIYNALAWYLQKPGRSPRLLIYNTDTLHTGVPDRFSGSGSGTDFTLKISRVQTEDVGVYFCQHYFHYPRTFGQGTKLELKR
notes: also called fe1_αD11
B3: fe_αD11_HCCDR2(L/V) (felinized anti-NGF monoclonal antibody, L to V at position 14 of heavy chain CDR2) (antibody, V domains shown)
VH: QVQLVESGGDLVQPGGSLRLTCVASGFSLTNNNVNWVRQAPGKGLEWMGGVWAGGATDYNSAVKSRLTITRDTSKNTVFLQMHSLQSEDTATYYCARDGGYSSSTLYAMDAWGQGTTVTVSA
VL: DIEMTQSPLSLSATPGETVSISCRASEDIYNALAWYLQKPGRSPRLLIYNTDTLHTGVPDRFSGSGSGTDFTLKISRVQTEDVGVYFCQHYFHYPRTFGQGTKLELKR
notes: also called fe_αD11+HCCDR2(LN); fe_αD11_HCCDR2(LN)
B4: ca_αD11_HCCDR2(L/V) (caninized anti-NGF antibody) (antibody, V domains shown)
VH: EVTLQESGPGLVKPSQTLSLTCVVSGFSLTNNNVNWVRQRPGRGLEWMGGVWAGGATDYNSAVKSRISITRDTAKNQVSLQLSSMTTEDTAVYYCARDGGYSSSTLYAMDAWGQGTLVTVSS
VL: EIVMTQSPASLSLSQEEKVTITCRASEDIYNALAWYQQKPGQAPKLLIYNTDTLHTGVPSRFSGSGSGTDYSFTISSLEPEDVAVYFCQHYFHYPRTFGAGTKVELK
notes: The antibody was detected with goat anti-canine IgG-HRP; also called ca_αD11_HCCDR2(LN); CaNGF

Legend:
mouse (murine) NGF [1] = molecular target: T1, mouse (murine) NGF (mouse (murine), UniProt P01139 122-241, limits assumed); experiment: ELISA, plates coated with 0.1 µg/ml muNGF, antibody at 100 to 1.56 ng/ml for the binding curve, goat anti-feline IgG-HRP detection
T1 construct: also called muNGF
Procedure: Pharmacokinetic (PK) studies were conducted in healthy cats. Four animals were administered each of the felinized anti-NGF antibodies (fe_αD11, fe_αD11+HCCDR1(F/L) and fe_αD11+HCCDR2(LN)) subcutaneously (s.c.) at 2.0 mg/kg on Days 0, 21, 42 and 63. Serum concentrations of the antibodies were assessed over 91 days. The concentration of each antibody in the serum was determined using an NGF-binding ELISA. Briefly, ELISA plates were coated with 0.1 μg/ml mouse (murine) NGF (muNGF) and blocked with PBS/0.05% Tween 20/1% BSA. muNGF-coated wells were then incubated for 1 hour at room temperature with antibody preparations, diluted in PBS/0.05% Tween 20/1% BSA (100 μl/well). Antibody concentrations ranging from 100 ng/ml to 1.56 ng/ml were used to establish a binding curve. After washing, the plates were incubated with a 1/5,000 dilution of goat anti-feline IgG-HRP in PBS/0.05% Tween 20/1% BSA. Plates were washed with PBS/0.05% Tween 20 and developed by the addition of TMB substrate. Development was stopped by the addition of 2M H₂SO₄, absorbance read at 450 nm and background values were subtracted from the absorbance readings. The non-compartmental pharmacokinetic parameters of the three felinized anti-NGF antibodies post-dose 1 and 4 were calculated using PKsolver. software.

mouse (murine) NGF [2] = molecular target: T1, mouse (murine) NGF; experiment: ELISA, plates coated with 0.1 µg/ml muNGF, antibody at 100 to 1.56 ng/ml for the standard curve, goat anti-canine IgG-HRP detection
Procedure: Pharmacokinetic (PK) studies were conducted in healthy dogs. Four animals were administered purified ca_αD11_HCCDR2(LN) subcutaneously (SC) at 1.0 mg/kg body weight on Day 0 and Day 28 of the study. The ca_αD11_HCCDR2(LN) antibody carries the same CDR sequences as described in Tables 3 and 4, below. Serum concentrations of ca_αD11_HCCDR2(LN) were assessed over 56 days using an NGF-binding ELISA, as detailed below. Pharmacokinetic parameters were determined using PKSolver software (Zhang Y et al. Computer Methods and Programs in Biomedicine. 2010; 99(3):306-314). The emergence of anti-drug antibodies was assessed at Days 28 and 56 using a bridging electrochemiluminescence (ECL) assay, as detailed below.
The concentration of ca_αD11_HCCDR2(LN) in dog serum was determined using an NGF-binding ELISA. Briefly, ELISA plates were coated with 0.1 μg/ml murine NGF (muNGF) and blocked with PBS/0.05% Tween 20/1% BSA. muNGF coated wells were incubated for 1 hour at room temperature with serum diluted in PBS/0.05% Tween 20/1% BSA (100 μl/well). Antibody concentrations ranging from 100 ng/ml to 1.56 ng/ml were used to establish a standard curve. After washing, the plates were incubated with a 1/10,000 dilution of goat anti-canine IgG-HRP in PBS/0.05% Tween 20/1% BSA. […] Development was stopped by the addition of 2M H₂SO₄ and absorbance read at 450 nm and background was subtracted.

T1 sequence (P01139 122-241 limits assumed): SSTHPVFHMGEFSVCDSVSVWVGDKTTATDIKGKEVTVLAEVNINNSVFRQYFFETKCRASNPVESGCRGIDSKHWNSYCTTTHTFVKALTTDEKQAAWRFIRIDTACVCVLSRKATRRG

Row | Binder | binding result (mouse (murine) NGF [1]) | binding result (mouse (murine) NGF [2])
1 | B1 | binds | 
2 | B2 | binds | 
3 | B3 | binds | 
4 | B4 |  | binds
